# Laboratory results published in PMC9482650, “Quantitative fragmentomics allow affinity mapping of interactomes” (Nature Communications, 2022).
# T1: RHPN1, Q8TCX5
# T1 sequence (Q8TCX5 508-602, limits assumed, looked up): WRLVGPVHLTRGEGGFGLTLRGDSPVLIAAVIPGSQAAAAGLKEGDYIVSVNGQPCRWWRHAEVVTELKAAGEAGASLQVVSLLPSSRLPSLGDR
# T2: DFNB31_3, Q9P202
# T2 sequence (Q9P202 811-907, limits assumed, looked up): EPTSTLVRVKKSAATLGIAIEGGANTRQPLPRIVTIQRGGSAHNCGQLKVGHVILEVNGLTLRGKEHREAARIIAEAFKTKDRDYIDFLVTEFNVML
# T3: MPP6, Q9NZW5
# T3 sequence (Q9NZW5 125-219, limits assumed, looked up): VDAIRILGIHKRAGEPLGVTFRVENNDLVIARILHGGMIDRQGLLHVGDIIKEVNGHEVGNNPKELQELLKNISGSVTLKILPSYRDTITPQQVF
# T4: LRRC7, Q96NW7
# T4 sequence (Q96NW7 1440-1537, limits assumed, looked up): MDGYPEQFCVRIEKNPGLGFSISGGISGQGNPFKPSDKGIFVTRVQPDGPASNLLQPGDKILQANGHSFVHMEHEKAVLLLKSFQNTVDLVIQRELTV
# T5: GRIP1_2, Q9Y3R0
# T5 sequence (Q9Y3R0 145-248, limits assumed, looked up): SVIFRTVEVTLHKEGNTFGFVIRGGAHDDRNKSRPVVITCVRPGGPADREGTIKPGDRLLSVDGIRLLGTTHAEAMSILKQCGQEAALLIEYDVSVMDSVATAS
# T6: HTRA4, P83105
# T6 sequence (P83105 378-476, limits assumed, looked up): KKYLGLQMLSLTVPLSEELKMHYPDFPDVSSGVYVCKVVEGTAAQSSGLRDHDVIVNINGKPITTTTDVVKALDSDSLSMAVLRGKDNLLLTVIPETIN
# T7: DVL3, Q92997
# T7 sequence (Q92997 244-331, limits assumed, looked up): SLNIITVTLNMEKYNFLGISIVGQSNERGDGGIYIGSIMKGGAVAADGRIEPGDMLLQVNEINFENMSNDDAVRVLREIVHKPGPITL
# T8: ARHGAP21, Q5T5U3
# T8 sequence (Q5T5U3 45-169, limits assumed, looked up): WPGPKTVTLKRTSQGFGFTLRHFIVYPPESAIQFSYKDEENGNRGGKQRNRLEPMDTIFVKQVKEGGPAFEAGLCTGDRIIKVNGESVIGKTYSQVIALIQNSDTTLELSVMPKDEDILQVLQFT
# T9: APBA3_1, O96018
# T9 sequence (O96018 389-490, limits assumed, looked up): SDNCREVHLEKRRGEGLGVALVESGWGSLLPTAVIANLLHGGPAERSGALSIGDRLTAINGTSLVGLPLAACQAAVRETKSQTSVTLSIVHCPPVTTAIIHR
# Key:
# Assay in all cases: holdup assay
# Parameters in all cases: key: below the threshold = too weak to quantify, mostly under pKd 3.1 to 4
# GRIP2_3, Q9C0E4 = biological target: GRIP2_3, Q9C0E4
# Sequence of GRIP2_3, Q9C0E4 (Q9C0E4 238-339): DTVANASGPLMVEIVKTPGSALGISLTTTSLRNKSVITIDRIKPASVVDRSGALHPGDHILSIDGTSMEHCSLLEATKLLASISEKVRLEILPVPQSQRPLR
# FRMPD2_1, Q68DX3 = biological target: FRMPD2_1, Q68DX3
# Sequence of FRMPD2_1, Q68DX3 (Q68DX3 770-861): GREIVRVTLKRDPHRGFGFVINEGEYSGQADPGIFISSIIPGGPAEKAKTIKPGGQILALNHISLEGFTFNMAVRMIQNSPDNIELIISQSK
# SNX27, Q96L92 = biological target: SNX27, Q96L92
# DLG4_3, P78352 = biological target: DLG4_3, P78352
# Sequence of DLG4_3, P78352 (P78352 306-403): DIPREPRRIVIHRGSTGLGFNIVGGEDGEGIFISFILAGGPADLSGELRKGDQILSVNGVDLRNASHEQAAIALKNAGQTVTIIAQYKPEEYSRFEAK
# DLG1_2, Q12959 = biological target: DLG1_2, Q12959
# Sequence of DLG1_2, Q12959 (Q12959 314-412): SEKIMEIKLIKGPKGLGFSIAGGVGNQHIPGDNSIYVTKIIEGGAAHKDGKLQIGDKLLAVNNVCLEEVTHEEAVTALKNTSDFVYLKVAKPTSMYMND
# RHPN1, Q8TCX5 = biological target: T1, RHPN1, Q8TCX5
# IL16_4, Q14005 = biological target: IL16_4, Q14005
# Sequence of IL16_4, Q14005 (Q14005 1229-1329): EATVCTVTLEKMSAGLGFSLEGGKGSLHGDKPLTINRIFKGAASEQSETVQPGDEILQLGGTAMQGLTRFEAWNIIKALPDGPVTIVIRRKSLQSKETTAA
# DFNB31_3, Q9P202 = biological target: T2, DFNB31_3, Q9P202
# LAP2, Q96RT1 = biological target: LAP2, Q96RT1
# Sequence of LAP2, Q96RT1 (Q96RT1 other isoform, or with tags, fused parts or gaps): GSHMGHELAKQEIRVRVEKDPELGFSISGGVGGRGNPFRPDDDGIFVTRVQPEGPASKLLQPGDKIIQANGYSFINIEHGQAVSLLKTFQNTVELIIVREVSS
# Inadl_9, Q8NI35 = biological target: Inadl_9, Q8NI35
# Sequence of Inadl_9, Q8NI35 (Q8NI35 1530-1615): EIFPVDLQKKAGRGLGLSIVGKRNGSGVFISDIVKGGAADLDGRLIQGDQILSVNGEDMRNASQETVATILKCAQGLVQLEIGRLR
# MPP6, Q9NZW5 = biological target: T3, MPP6, Q9NZW5
# GRIP2_6, Q9C0E4 = biological target: GRIP2_6, Q9C0E4
# Sequence of GRIP2_6, Q9C0E4 (Q9C0E4 648-740): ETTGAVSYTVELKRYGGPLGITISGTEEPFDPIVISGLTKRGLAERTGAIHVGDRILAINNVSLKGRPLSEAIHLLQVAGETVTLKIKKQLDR
# SCRIB_1, Q14160 = biological target: SCRIB_1, Q14160
# Sequence of SCRIB_1, Q14160 (Q14160 718-814): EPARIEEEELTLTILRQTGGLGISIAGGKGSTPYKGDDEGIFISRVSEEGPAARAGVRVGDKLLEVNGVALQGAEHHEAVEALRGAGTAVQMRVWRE
# DLG2_2, Q15700 = biological target: DLG2_2, Q15700
# Sequence of DLG2_2, Q15700 (Q15700 189-283): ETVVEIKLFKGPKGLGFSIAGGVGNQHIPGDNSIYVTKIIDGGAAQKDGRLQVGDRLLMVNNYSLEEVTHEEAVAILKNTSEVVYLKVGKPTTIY
# Inadl_2, Q8NI35 = biological target: Inadl_2, Q8NI35
# Sequence of Inadl_2, Q8NI35 (Q8NI35 238-335): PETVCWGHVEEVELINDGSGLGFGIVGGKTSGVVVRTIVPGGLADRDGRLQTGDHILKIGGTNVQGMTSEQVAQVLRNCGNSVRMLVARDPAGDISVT
# LDB3, O75112 = biological target: LDB3, O75112
# Sequence of LDB3, O75112 (O75112 1-94): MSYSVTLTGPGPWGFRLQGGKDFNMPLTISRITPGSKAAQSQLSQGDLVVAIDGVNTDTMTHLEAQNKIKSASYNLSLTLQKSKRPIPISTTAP
# LRRC7, Q96NW7 = biological target: T4, LRRC7, Q96NW7
# GRIP1_2, Q9Y3R0 = biological target: T5, GRIP1_2, Q9Y3R0
# HTRA4, P83105 = biological target: T6, HTRA4, P83105
# MAST2, Q6P0Q8 = biological target: MAST2, Q6P0Q8
# Sequence of MAST2, Q6P0Q8 (Q6P0Q8 1099-1202): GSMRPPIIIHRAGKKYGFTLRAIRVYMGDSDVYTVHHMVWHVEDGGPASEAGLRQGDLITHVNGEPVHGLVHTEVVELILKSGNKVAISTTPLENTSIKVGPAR
# MAGI2_2, Q86UL8 = biological target: MAGI2_2, Q86UL8
# Sequence of MAGI2_2, Q86UL8 (Q86UL8 410-522): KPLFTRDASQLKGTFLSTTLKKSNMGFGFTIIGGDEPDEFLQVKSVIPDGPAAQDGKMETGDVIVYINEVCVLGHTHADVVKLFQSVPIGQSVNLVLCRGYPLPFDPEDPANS
# DVL3, Q92997 = biological target: T7, DVL3, Q92997
# ARHGAP21, Q5T5U3 = biological target: T8, ARHGAP21, Q5T5U3
# Inadl_8, Q8NI35 = biological target: Inadl_8, Q8NI35
# Sequence of Inadl_8, Q8NI35 (Q8NI35 1425-1530): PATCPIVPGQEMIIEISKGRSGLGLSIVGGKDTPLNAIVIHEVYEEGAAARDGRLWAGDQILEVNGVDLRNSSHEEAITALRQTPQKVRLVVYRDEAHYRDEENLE
# FRMPD3, Q5JV73 = biological target: FRMPD3, Q5JV73
# Sequence of FRMPD3, Q5JV73 (Q5JV73 12-100): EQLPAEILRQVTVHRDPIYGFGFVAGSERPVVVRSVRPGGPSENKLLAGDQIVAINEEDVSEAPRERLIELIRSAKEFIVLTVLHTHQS
# APBA3_1, O96018 = biological target: T9, APBA3_1, O96018
# GRIP2_7, Q9C0E4 = biological target: GRIP2_7, Q9C0E4
# Sequence of GRIP2_7, Q9C0E4 (Q9C0E4 934-1023): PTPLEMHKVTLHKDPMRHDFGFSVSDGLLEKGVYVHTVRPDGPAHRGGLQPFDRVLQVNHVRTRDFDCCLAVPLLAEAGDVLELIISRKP
# DLG5_1, Q8TDM6 = biological target: DLG5_1, Q8TDM6
# Sequence of DLG5_1, Q8TDM6 (Q8TDM6 617-713): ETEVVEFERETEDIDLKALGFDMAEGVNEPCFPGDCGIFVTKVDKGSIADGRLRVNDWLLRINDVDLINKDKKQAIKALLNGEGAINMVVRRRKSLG
# [1] = plain residues with an end cap or a label only (N-terminal biotin on a linker: ttds)
# [2] = plain residues with an end cap or a label only (N-terminal biotin on a linker: ado-ado)
# [3] = plain residues with an end cap or a label only (N-terminal biotin on a linker: ahx)
binder,measurement,setting,value
"PSRDRKETSI [RALBP1, Q15311]",pKd,"GRIP2_3, Q9C0E4; [1]",below the threshold
same,pKd,"FRMPD2_1, Q68DX3; [1]",below the threshold
same,pKd,"SNX27, Q96L92; [1]",4.23
same,pKd,"DLG4_3, P78352; [1]",4.87
same,pKd,"DLG1_2, Q12959; [1]",4.7
same,pKd,"RHPN1, Q8TCX5; [1]",3.92
same,pKd,"IL16_4, Q14005; [1]",below the threshold
same,pKd,"DFNB31_3, Q9P202; [1]",below the threshold
same,pKd,"LAP2, Q96RT1; [1]",3.37
same,pKd,"Inadl_9, Q8NI35; [1]",below the threshold
same,pKd,"MPP6, Q9NZW5; [1]",below the threshold
same,pKd,"GRIP2_6, Q9C0E4; [1]",3.36
same,pKd,"SCRIB_1, Q14160; [1]",4.49
same,pKd,"DLG2_2, Q15700; [1]",4.29
same,pKd,"Inadl_2, Q8NI35; [1]",below the threshold
same,pKd,"LDB3, O75112; [1]",below the threshold
same,pKd,"LRRC7, Q96NW7; [1]",below the threshold
same,pKd,"GRIP1_2, Q9Y3R0; [1]",3.45
same,pKd,"HTRA4, P83105; [1]",below the threshold
same,pKd,"MAST2, Q6P0Q8; [1]",4.88
same,pKd,"MAGI2_2, Q86UL8; [1]",4.03
same,pKd,"DVL3, Q92997; [1]",below the threshold
same,pKd,"ARHGAP21, Q5T5U3; [1]",below the threshold
same,pKd,"Inadl_8, Q8NI35; [1]",below the threshold
same,pKd,"FRMPD3, Q5JV73; [1]",below the threshold
same,pKd,"APBA3_1, O96018; [1]",below the threshold
same,pKd,"GRIP2_7, Q9C0E4; [1]",below the threshold
same,pKd,"DLG5_1, Q8TDM6; [1]",below the threshold
"EKPIDSETKM [SLC1A3, P43003]",pKd,"GRIP2_3, Q9C0E4; [2]",below the threshold
same,pKd,"FRMPD2_1, Q68DX3; [2]",below the threshold
same,pKd,"SNX27, Q96L92; [2]",5.18
same,pKd,"DLG4_3, P78352; [2]",below the threshold
same,pKd,"DLG1_2, Q12959; [2]",below the threshold
same,pKd,"RHPN1, Q8TCX5; [2]",3.55
same,pKd,"IL16_4, Q14005; [2]",below the threshold
same,pKd,"DFNB31_3, Q9P202; [2]",below the threshold
same,pKd,"LAP2, Q96RT1; [2]",below the threshold
same,pKd,"Inadl_9, Q8NI35; [2]",below the threshold
same,pKd,"MPP6, Q9NZW5; [2]",below the threshold
same,pKd,"GRIP2_6, Q9C0E4; [2]",below the threshold
same,pKd,"SCRIB_1, Q14160; [2]",3.5
same,pKd,"DLG2_2, Q15700; [2]",below the threshold
same,pKd,"Inadl_2, Q8NI35; [2]",below the threshold
same,pKd,"LDB3, O75112; [2]",below the threshold
same,pKd,"LRRC7, Q96NW7; [2]",below the threshold
same,pKd,"GRIP1_2, Q9Y3R0; [2]",below the threshold
same,pKd,"HTRA4, P83105; [2]",below the threshold
same,pKd,"MAST2, Q6P0Q8; [2]",5.51
same,pKd,"MAGI2_2, Q86UL8; [2]",below the threshold
same,pKd,"DVL3, Q92997; [2]",below the threshold
same,pKd,"ARHGAP21, Q5T5U3; [2]",below the threshold
same,pKd,"Inadl_8, Q8NI35; [2]",below the threshold
same,pKd,"FRMPD3, Q5JV73; [2]",below the threshold
same,pKd,"APBA3_1, O96018; [2]",below the threshold
same,pKd,"GRIP2_7, Q9C0E4; [2]",below the threshold
same,pKd,"DLG5_1, Q8TDM6; [2]",below the threshold
"VNENQKEYFF [CNTNAP4, Q9C0A0]",pKd,"GRIP2_3, Q9C0E4; [3]",below the threshold
same,pKd,"FRMPD2_1, Q68DX3; [3]",below the threshold
same,pKd,"SNX27, Q96L92; [3]",3.83
same,pKd,"DLG4_3, P78352; [3]",below the threshold
same,pKd,"DLG1_2, Q12959; [3]",below the threshold
same,pKd,"RHPN1, Q8TCX5; [3]",below the threshold
same,pKd,"IL16_4, Q14005; [3]",below the threshold
same,pKd,"DFNB31_3, Q9P202; [3]",below the threshold
same,pKd,"LAP2, Q96RT1; [3]",below the threshold
same,pKd,"Inadl_9, Q8NI35; [3]",below the threshold
same,pKd,"MPP6, Q9NZW5; [3]",below the threshold
same,pKd,"GRIP2_6, Q9C0E4; [3]",5.04
same,pKd,"SCRIB_1, Q14160; [3]",below the threshold
same,pKd,"DLG2_2, Q15700; [3]",below the threshold
same,pKd,"Inadl_2, Q8NI35; [3]",5.4
same,pKd,"LDB3, O75112; [3]",below the threshold
same,pKd,"LRRC7, Q96NW7; [3]",below the threshold
same,pKd,"GRIP1_2, Q9Y3R0; [3]",below the threshold
same,pKd,"HTRA4, P83105; [3]",below the threshold
same,pKd,"MAST2, Q6P0Q8; [3]",5.08
same,pKd,"MAGI2_2, Q86UL8; [3]",below the threshold
same,pKd,"DVL3, Q92997; [3]",4.9
same,pKd,"ARHGAP21, Q5T5U3; [3]",3.91
same,pKd,"Inadl_8, Q8NI35; [3]",below the threshold
same,pKd,"FRMPD3, Q5JV73; [3]",4.66
same,pKd,"APBA3_1, O96018; [3]",below the threshold
same,pKd,"GRIP2_7, Q9C0E4; [3]",5.77
same,pKd,"DLG5_1, Q8TDM6; [3]",below the threshold
"DAAHHDESNC [FMNL3, Q8IVF7]",pKd,"GRIP2_3, Q9C0E4; [2]",below the threshold
same,pKd,"FRMPD2_1, Q68DX3; [2]",below the threshold
same,pKd,"SNX27, Q96L92; [2]",4.2
same,pKd,"DLG4_3, P78352; [2]",below the threshold
same,pKd,"DLG1_2, Q12959; [2]",below the threshold
same,pKd,"RHPN1, Q8TCX5; [2]",3.75
same,pKd,"IL16_4, Q14005; [2]",below the threshold
same,pKd,"DFNB31_3, Q9P202; [2]",3.99
same,pKd,"LAP2, Q96RT1; [2]",below the threshold
same,pKd,"Inadl_9, Q8NI35; [2]",below the threshold
same,pKd,"MPP6, Q9NZW5; [2]",below the threshold
same,pKd,"GRIP2_6, Q9C0E4; [2]",below the threshold
same,pKd,"SCRIB_1, Q14160; [2]",below the threshold
same,pKd,"DLG2_2, Q15700; [2]",below the threshold
same,pKd,"Inadl_2, Q8NI35; [2]",below the threshold
same,pKd,"LDB3, O75112; [2]",below the threshold
same,pKd,"LRRC7, Q96NW7; [2]",below the threshold
same,pKd,"GRIP1_2, Q9Y3R0; [2]",below the threshold
same,pKd,"HTRA4, P83105; [2]",below the threshold
same,pKd,"MAST2, Q6P0Q8; [2]",3.81
same,pKd,"MAGI2_2, Q86UL8; [2]",below the threshold
same,pKd,"DVL3, Q92997; [2]",below the threshold
same,pKd,"ARHGAP21, Q5T5U3; [2]",below the threshold
same,pKd,"Inadl_8, Q8NI35; [2]",below the threshold
same,pKd,"FRMPD3, Q5JV73; [2]",below the threshold
same,pKd,"APBA3_1, O96018; [2]",below the threshold
same,pKd,"GRIP2_7, Q9C0E4; [2]",below the threshold
same,pKd,"DLG5_1, Q8TDM6; [2]",below the threshold
